Measurements published in publication PMC2229591.

How the values were obtained:
[1] = biological target: filamentous actin (rabbit muscle) (rabbit) (UniProt P68135); assay: co-sedimentation; details: scale: actin per fragment
[2] = biological target: C0 fragment of cardiac myosin binding protein C (MyBP-C) (human); assay: pull-down + co-IP

Substance	stoichiometry N [1]	concentration that gives half-maximum binding [2] [µM]
C0C2 fragment of cardiac MyBP-C (domain or fragment)	7	
filamentous actin (rabbit muscle) (from UniProt P68135 1-377) (natural protein)		< 10
